Reference: PMC6420652

Experiments:
[1] = biological target: AZIN (Homo sapiens) (UniProt O14977); test: ultracentrifugation; conditions: cited from earlier work
[2] = biological target: antizyme-mRuby2 (antizyme with a C-terminal mRuby2 tag) (UniProt P54368); test: FRET titration; conditions: parent: est. 24; read off a plot
Chain of antizyme-mRuby2 (antizyme with a C-terminal mRuby2 tag) (P54368 whole entry): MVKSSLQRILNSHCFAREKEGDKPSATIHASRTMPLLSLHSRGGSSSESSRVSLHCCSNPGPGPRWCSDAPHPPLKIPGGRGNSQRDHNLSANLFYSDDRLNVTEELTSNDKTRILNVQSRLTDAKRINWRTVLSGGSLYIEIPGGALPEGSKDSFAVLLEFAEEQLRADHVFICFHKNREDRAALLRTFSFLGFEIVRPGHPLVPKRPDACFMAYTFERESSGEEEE

Chain of Antizyme (P54368 whole entry): as above
Chain of AZIN (Homo sapiens) (O14977 whole entry): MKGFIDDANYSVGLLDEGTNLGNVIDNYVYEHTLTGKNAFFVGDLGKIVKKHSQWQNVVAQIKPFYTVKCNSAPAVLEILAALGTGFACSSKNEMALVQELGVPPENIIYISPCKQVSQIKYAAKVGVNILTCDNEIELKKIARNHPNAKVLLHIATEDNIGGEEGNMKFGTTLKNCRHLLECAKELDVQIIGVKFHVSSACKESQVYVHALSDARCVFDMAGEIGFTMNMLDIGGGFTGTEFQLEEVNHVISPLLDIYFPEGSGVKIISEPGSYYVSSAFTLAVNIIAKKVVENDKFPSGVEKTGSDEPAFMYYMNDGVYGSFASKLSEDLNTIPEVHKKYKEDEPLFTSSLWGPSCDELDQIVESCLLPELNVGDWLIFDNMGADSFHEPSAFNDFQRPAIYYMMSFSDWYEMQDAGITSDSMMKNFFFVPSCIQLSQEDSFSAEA
Chain of Clover-AZIN (antizyme inhibitor with an N-terminal Clover tag) (O14977 whole entry, stated change not applied): as the sequence (O14977 whole entry) above

Kd [2] [nM] | Substance | Kd [1] [nM]
– | Antizyme (from UniProt P54368) | 20
11 | Clover-AZIN (antizyme inhibitor with an N-terminal Clover tag) (from UniProt O14977) V137A | –
